In publication PMC3576881:

Biological target: TβR-II/TGF-β3 binary complex (UniProt P37173)
Experiment: SPR

- Kd: 310 nM
Substance: TβR-I 7–91 (domain or fragment)
